{"source": "patent US11306137B2", "about": "“Antibody binding agents that bind Acinetobactor and uses thereof” (priority 2015, dated 2022)", "molecules": {"B1": {"name": "C8: mouse IgG1-kappa monoclonal antibody from hybridoma 9.1C8 (ATCC PTA-122177); light chain SEQ ID NO:2, heavy chain SEQ ID NO:3 (antibody, listed as Mus musculus, V domains shown)", "VH": "EVQLQQSGPELVKPGASVKISCKASGYSFTGYTMNWVKQSHGKSLEWIGRINPYNGDSFYNQKFKGKATLTVDKSSNIAHMEFLSLTSEDSAVYYCGRSGDGPWFAYWGQGTLVTVSA", "VL": "LPLSLPVSLGDQASISCRSSQSIVHNNGNTYLEWYLQKPGQSPKLLIYKVSNRFSGVPDRFSGSGSGTDFTLKISRVEAEDLGVYYCFQGSHVPLTFGAGTKLEIKGSRS"}}, "key": {"[1]": {"test_system": "A. baumannii HUMC1 uptake by RAW 264.7 macrophages", "test": "Opsonophagocytosis assay (macrophage uptake)", "assay_type": "cell-based", "settings": "FIG. 6B", "method": "RAW 264.7 macrophages (1×10^6 per well) were grown on coverslips in 12-well plates and stimulated with 100 U/mL IFN-γ. Cells adhered to the cover glass overnight in a humidified incubator at 37° C. supplemented with 5% CO2. Cells were washed three times with HBSS and bacteria were added to wells at a ratio of 10:1, bacteria to macrophages, in the presence (or absence) of 10% fetal bovine serum (FBS), either heat-inactivated or complement-active. Plates were briefly centrifuged at 250×g to cohere the bacterial cells to the bottom of the plate and incubated at 37° for 2 hr. Macrophages were washed three times with PBS, fixed with 100% methanol, and Hema 3-stained according to the manufacturer's protocol (Fisher Scientific). To quantitate bacteria counts per macrophage, coverslips were imaged on a Zeiss Axiolmager microscope. Macrophages harboring visible adherent or internalized bacteria were counted and divided by total macrophages to determine the percentage of cells with associated bacteria. The number of bacteria associated with each macrophage was also quantitated and recorded. A minimum of 100 cells per coverslip were counted."}, "A. baumannii HUMC1 [2]": {"test_system": "A. baumannii HUMC1", "test": "Confocal immunofluorescence surface binding", "settings": "FIG. 5", "method": "To detect surface binding of A. baumannii by purified C8 MAb, mid-log-growth A. baumannii strains were washed twice, resuspended in PBS, stained with NucBlue Reagent (Life Technologies) for 30 min at 37° C., pelleted, and washed again in PBS. Primary antibody, either C8 MAb or Isotype Control IgG1 (R&D Systems, Product #MAB002), was added to 100 μL of bacteria to a final concentration of 100 μg/mL and incubated for 30 min at 37° C. Bacteria were washed twice and resuspended in secondary antibody goat anti-mouse IgG AlexaFluor647 (Life Technologies, Product #A21235) at a final concentration of 2 μg/mL for 20 min at 37° C. After washing twice with PBS, bacteria was resuspended in 50 μL PBS, and 10 μL drops were placed on slides and mounted with cover slips and nail polish. Images were taken using a Spinning Disc Confocal Microscope (Zeiss Axiolmager)."}, "A. baumannii HUMC1 [3]": {"test_system": "A. baumannii HUMC1", "test": "Lethal bloodstream (i.v. tail-vein) infection model, survival", "assay_type": "in vivo, mice", "settings": "for protection against infection (survival): 2×10^7 HUMC1 i.v., treated once i.v., FIG. 2; for survival: HUMC1 i.v., FIG. 3 / FIG. 7B", "method": "To determine if C8 could treat, inhibit and/or prevent A. baumannii induced sepsis, mice were infected i.v. via the tail-vein with 2×10^7 hyper-virulent A. baumannii HUMC1 and were treated once i.v. with either protein-G purified C8 mAb (approximately 10 or 20 μg doses) or an isotype-control antibody in a saline buffer. […] In a second experiment, mice were similarly infected and the C8 MAb was administered once i.v. in saline buffer at a low (5 μg) and very low (0.5 μg) dose.\nMale C3HeB/Fe mice (Jackson Labs) between the ages of 7-10 wk were used for all experiments. All animal work was conducted following approval by the Institutional Animal Use and Care Committee at the University of Southern California, in compliance with the recommendations in the Guide for the Care and Use of Laboratory Animals of the National Institutes of Health.\nFor the bloodstream infection model, mice were infected intravenously via the tail-vein with designated inocula of A. baumannii isolates. An oropharyngeal model of aspiration pneumonia that recapitulates hospital- or ventilator-associated pneumonia (VAP) relevant to ICU populations was used. In brief, mice were sedated with isoflurane, hung by their maxillary incisors, tongues held to prevent swallowing, and 50 μL of bacterial inocula was placed in the trachea to allow inoculation of the organisms into the lungs by reflexive aspiration."}, "[4]": {"test_system": "A. baumannii cell surface", "test": "Flow cytometry binding to A. baumannii cell surface", "method": "Hybridoma pre-clones were selected for subcloning based on bacterial cell surface reactivity by flow cytometry. Briefly, A. baumannii was passaged to log phase, stained with the bacterial dye SYTO BC (LifeTech #B7277), then stained with pre-clone supernatant from 96-well plates at 4° C., rinsed, and counter-stained with CF 647-conjugated goat anti-mouse IgG (Sigma-Aldrich, #SAB4600182). Control samples were stained with mouse IgG1 isotype control mAb (R&D Systems, #MAB002). Percent positivity was determined by flow cytometry.\nHybridoma cell lines were propagated in 96-well flat-bottom plates in DMEM-20%, and supernatants were harvested from wells for initial flow cytometry screening to identify antibodies that bound to intact bacteria. In brief, A. baumannii isolates were passaged to log phase, stained with the bacterial dye SYTO BC (LifeTech #B7277), and incubated for 1 hr with undiluted supernatants collected from 96-well plates at 4° C. Cells were washed and counter-stained with a secondary antibody, CF647-conjugated goat anti-mouse IgG (Sigma-Aldrich, #SAB4600182). Control samples were stained with a mouse IgG1 isotype control MAb (R&D Systems, #MAB002) as a negative control, and mouse polyclonal HUMC1-immune serum as a positive control for bacterial binding. Hybridomas that tested positive for bacterial binding were subcloned by limiting dilution into 96-well plates to ensure clonality, expanded, and retested to confirm bacterial binding."}, "A. baumannii HUMC1 [5]": {"test_system": "A. baumannii HUMC1", "test": "In vitro complement susceptibility (bacterial growth in mouse serum)", "assay_type": "cell-based", "settings": "heat-inactivated or complement-active CD-1 mouse serum; FIG. 6A", "method": "Overnight cultures of A. baumannii were subcultured to log-phase, washed in PBS, and resuspended at 1×10^6 CFUs/mL in 3 mL HBSS containing 50% CD-1 mouse serum that had been either heat-inactivated at 57° C. for 30 minutes or not. Tubes were shaken (200 rpm) for 2 hr at 37° C. and bacterial expansion was quantified by serially diluting cultures on TSA plates and counting CFUs."}, "A. baumannii HUMC1 [6]": {"test_system": "A. baumannii HUMC1", "test": "Lethal bloodstream (i.v. tail-vein) infection model, survival", "assay_type": "in vivo, mice", "settings": "for protection against infection (survival): 100% lethal inoculum HUMC1 i.v., immediate treatment, FIG. 7A"}, "[7]": {"test_system": "pili preparations from A. baumannii", "test": "Western blot of pili preparations (proteinase K or periodate treated)", "assay_type": "binding", "method": "Since it appeared that C8 bound to the pili on the surface of the bacteria, an established protocol was to sheer pili off the bacteria in an attempt to more accurately determine the epitope targeted by C8. To distinguish protein from carbohydrate targets, the pili preparation was divided into three portions: one fraction was treated with proteinase K, one fraction was treated with periodate to degrade carbohydrates, and one fraction was untreated. The pili preparations were run in a western blot and stained with C8 or isotype control MAb."}}, "note": "“Also recorded” adds a separate entry of the source.", "data": [{"molecule": "B1", "values": [{"measurement": "macrophage uptake of A. baumannii", "setting": "[1]; C8 5 μg/mL, heat-inactivated or complement-active serum", "result": "markedly increased; also recorded: markedly improved macrophage uptake"}, {"measurement": "macrophage uptake of A. baumannii with active complement", "setting": "[1]; C8 MAb plus normal serum with active complement", "result": "highest uptake; also recorded: enhancement was greatest with complement"}, {"measurement": "surface binding by immunofluorescent staining", "setting": "A. baumannii HUMC1 [2]", "result": "confirmed diffuse surface binding"}, {"measurement": "protection against infection (survival)", "setting": "A. baumannii HUMC1 [3]; approximately 10 μg", "result": 100, "unit": "%"}, {"measurement": "protection against infection (survival)", "setting": "A. baumannii HUMC1 [3]; approximately 20 μg", "result": 100, "unit": "%"}, {"measurement": "survival", "setting": "A. baumannii HUMC1 [3]; 0.5 μg once i.v. immediately", "result": "markedly improved survival; also recorded: significantly improved survival"}, {"measurement": "survival", "setting": "A. baumannii HUMC1 [3]; 5 μg once i.v. immediately", "result": "markedly improved survival; also recorded: fully protective"}, {"measurement": "binding to the cell surface of A. baumannii by flow cytometry", "setting": "[4]; HUMC1 strain", "result": "specifically bound; also recorded: to the same extent as polyclonal immune serum"}, {"measurement": "surface binding to other clinical isolates by flow cytometry", "setting": "[4]; HUMC6, C14, ATCC 17978, AB0071, UH7007 (Table 7)", "result": "representative of 5 other strains; also recorded: Surface binding was confirmed to 4 other diverse clinical isolates"}, {"measurement": "impact on bacterial growth in vitro", "setting": "A. baumannii HUMC1 [5]", "result": "minimal impact"}, {"measurement": "protection against infection (survival)", "setting": "A. baumannii HUMC1 [6]; high dose (approximately 150 μg)", "result": 100, "unit": "%"}, {"measurement": "protection against infection (survival)", "setting": "A. baumannii HUMC1 [6]; low dose (approximately 50 μg)", "result": 100, "unit": "%"}, {"measurement": "survival, delayed treatment", "setting": "A. baumannii HUMC1 [6]; i.v. infection, treated i.p. (50 μg) at 30 min post-infection, FIG. 7C", "result": "rescued from lethal infection"}, {"measurement": "survival, delayed treatment (monotherapy)", "setting": "A. baumannii HUMC1 [6]; i.v. infection, treated i.p. at 1 hr post-infection, C8 150 μg, colistin 0.0125 mg/kg, FIG. 7D", "result": "not all mice survived; also recorded: minimally improved survival; also recorded: too late"}, {"measurement": "western blot signal, periodate treated pili fraction", "setting": "[7]; periodate treatment (degrades carbohydrates)", "result": "eliminated completely"}, {"measurement": "western blot signal, proteinase K treated pili fraction", "setting": "[7]; proteinase K treatment", "result": "unchanged"}, {"measurement": "western blot signal, untreated pili fraction", "setting": "[7]; untreated", "result": "large conglomeration at the top of the gel"}, {"measurement": "epitope / target on A. baumannii", "setting": "[7]; western blots and flow binding to a capsule-mutant bacterial strain", "result": "binds to capsular polysaccharide"}]}]}
